This passage reports Absorbance (450 nm) results from patent US20200317779A1.

Experiment [1] deals with recombinant cynomolgus monkey CD3ε/δ heterodimer (cynomolgus monkey) (UniProt Q95LI5). As to the kind of experiment: ELISA, coated CD3ε/δ. In general terms: An ELISA detects its analyte on a solid surface through an enzyme-linked reagent.
Experiment [2] has as its target recombinant human CD3ε/δ heterodimer (human) (UniProt P07766). As to the kind of experiment: ELISA, coated CD3ε/δ.

Chain of recombinant human CD3ε/δ heterodimer (human) (P07766 23-126, stated change not applied, chain 1 of 2): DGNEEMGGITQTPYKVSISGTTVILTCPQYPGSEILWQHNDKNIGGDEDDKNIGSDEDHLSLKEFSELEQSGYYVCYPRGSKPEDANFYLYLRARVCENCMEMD
Chain of recombinant human CD3ε/δ heterodimer (human) (P04234 22-105, stated change not applied, chain 2 of 2, further chain): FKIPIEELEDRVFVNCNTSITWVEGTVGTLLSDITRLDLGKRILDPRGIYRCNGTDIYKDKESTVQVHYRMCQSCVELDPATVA
Chain of recombinant cynomolgus monkey CD3ε/δ heterodimer (cynomolgus monkey) (Q95LI5 22-117, stated change not applied, chain 1 of 2): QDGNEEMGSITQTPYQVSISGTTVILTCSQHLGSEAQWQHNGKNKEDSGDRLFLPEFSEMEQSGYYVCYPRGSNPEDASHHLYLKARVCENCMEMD
Chain of recombinant cynomolgus monkey CD3ε/δ heterodimer (cynomolgus monkey) (Q95LI8 22-105, stated change not applied, chain 2 of 2, further chain): as the sequence (P04234 22-105, stated change not applied, chain 2 of 2, further chain) above, with I5V, N15K, I20V, S32T, D33N, I34N, T64A, S74N, V83L counted along it

B1: F11 (antibody, human IgG1, lambda, L234A L235A, V domains shown)
VH: EVQLVESGGGLVQPGGSLKLSCAASGFTFNTYAMNWVRQASGKGLEWVARIRSKYNNYATYYADSVKDRFTISRDDSKNTLYLQMNSLKTEDTAVYYCVRHGNFGNSYVSWFAYWGQGTLVTVSS
VL: QAVVTQEPSLTVSPGGTVTLTCRSSTGAVTTSNYANWVQQKPGQAPRTLIGGTNKRAPWTPARFSGSLLGGKAALTLSGAQPEDEAEYYCALWYSNLWVFGGGTKLTVLG
Turning to B1, the figures for the Absorbance (450 nm) in experiment [1] and in experiment [2] were 0.104 and 0.138, respectively.

B2: G06 (antibody, human IgG1, lambda, L234A L235A, V domains shown)
VH: EVQLVESGGGLVQPGGSLKLSCAASGFTFNTYAMNWVRQASGKGLEWVARIRSKYNNYATYYADSVKDRFTISRDDSQSTAYLQMNSLKTEDTAVYYCVRHGNFGNSYVSWFAYWGQGTLVTVSS
VL: QAVVTQEPSLTVSPGGTVTLTCRSSTGAVTTSNYANWFQQKPGQAPRGLIYGTNKRAPWTPARFSGSLLGDKAALTLSGAQPEDEAEYYCALWYSNLWVFGGGTKLTVLG
For the molecule B2, the Absorbance (450 nm) in experiment [1] was determined as 0.078; in experiment [2], 0.118.

B3: A11 (antibody, human IgG1, lambda, L234A L235A, V domains shown)
VH: EVQLVESGGGLVQPGGSLKLSCAASGFTFNTYAMNWVRQASGKGLEWVGRIRSKYNNYATYYADSVKDRFTISRDDSKNTAYLQMNSLKTEDTAVYYCVRHGNFGNSYVSWFAYWGQGTLVTVSS
VL: QAVVTQEPSLTVSPGGTVTLTCRSSTGAVTTSNYANWVQQKPGQAPRTLIGGTNKRAPWTPARFSGSLLGGKAALTLSGAQPEDEAEYYCALWYSNLWVFGGGTKLTVLG
On to B3, for which the Absorbance (450 nm) amounted to 0.105 in experiment [1] and 0.122 in experiment [2].

B4: G01 (antibody, human IgG1, lambda, L234A L235A, V domains shown)
VH: EVQLVESGGGLVQPGGSLKLSCAASGFTFNTYAMNWVRQASGKGLEWVARIRSKYNNYATYYADSVKDRFTISRDDSQSTAYLQMNSLKTEDTAVYYCVRHGNFGNSYVSWFAYWGQGTLVTVSS
VL: QAVVTQEPSLTVSPGGTVTLTCRSSTGAVTTSNYANWFQQKPGQAPRTLIYGTNKRAPWTPARFSGSLLGGKAALTLSGAQPEDEAEYYCALWYSNLWVFGGGTKLTVLG
On to B4, for which the Absorbance (450 nm) was 0.096 in experiment [1] and 0.113 in experiment [2].

B5: G11 (antibody, human IgG1, lambda, L234A L235A, V domains shown)
VH: EVQLVESGGGLVQPGGSLKLSCAASGFTFNTYAMNWVRQASGKGLEWVARIRSKYNNYATYYADSVKDRFTISRDDSQSTAYLQMNSLKTEDTAVYYCVRHGNFGNSYVSWFAYWGQGTLVTVSS
VL: QAVVTQEPSLTVSPGGTVTLTCRSSTGAVTTSNYANWVQQKPGQAPRTLIGGTNKRAPWTPARFSGSLLGGKAALTLSGAQPEDEAEYYCALWYSNLWVFGGGTKLTVLG
Consider B5, for which the Absorbance (450 nm) in experiment [1] was 0.08; in experiment [2] it was 0.104.

B6: G12 (antibody, human IgG1, lambda, L234A L235A, V domains shown)
VH: EVQLVESGGGLVQPGGSLKLSCAASGFTFNTYAMNWVRQASGKGLEWVARIRSKYNNYATYYADSVKDRFTISRDDSQSTAYLQMNSLKTEDTAVYYCVRHGNFGNSYVSWFAYWGQGTLVTVSS
VL: QAVVTQEPSLTVSPGGTVTLTCRSSTGAVTTSNYANWVQQKPGQAPRTLIGGTNKRAPWTPARFSGSLLGDKAALTLSGAQPEDEAEYYCALWYSNLWVFGGGTKLTVLG
Take B6: the values for the Absorbance (450 nm) in experiment [1] and in experiment [2] were 0.065 and 0.085, respectively.

B7: G02 (antibody, human IgG1, lambda, L234A L235A, V domains shown)
VH: EVQLVESGGGLVQPGGSLKLSCAASGFTFNTYAMNWVRQASGKGLEWVARIRSKYNNYATYYADSVKDRFTISRDDSQSTAYLQMNSLKTEDTAVYYCVRHGNFGNSYVSWFAYWGQGTLVTVSS
VL: QAVVTQEPSLTVSPGGTVTLTCRSSTGAVTTSNYANWFQQKPGQAPRTLIYGTNKRAPWTPARFSGSLLGDKAALTLSGAQPEDEAEYYCALWYSNLWVFGGGTKLTVLG
With B7, the Absorbance (450 nm) in experiment [1] came out at 0.069; in experiment [2], 0.146.

B8: F12 (antibody, human IgG1, lambda, L234A L235A, V domains shown)
VH: EVQLVESGGGLVQPGGSLKLSCAASGFTFNTYAMNWVRQASGKGLEWVARIRSKYNNYATYYADSVKDRFTISRDDSKNTLYLQMNSLKTEDTAVYYCVRHGNFGNSYVSWFAYWGQGTLVTVSS
VL: QAVVTQEPSLTVSPGGTVTLTCRSSTGAVTTSNYANWVQQKPGQAPRTLIGGTNKRAPWTPARFSGSLLGDKAALTLSGAQPEDEAEYYCALWYSNLWVFGGGTKLTVLG
For the molecule B8, the Absorbance (450 nm) was 0.077 in experiment [1] and 0.09 in experiment [2].

B9: G04 (antibody, human IgG1, lambda, L234A L235A, V domains shown)
VH: EVQLVESGGGLVQPGGSLKLSCAASGFTFNTYAMNWVRQASGKGLEWVARIRSKYNNYATYYADSVKDRFTISRDDSQSTAYLQMNSLKTEDTAVYYCVRHGNFGNSYVSWFAYWGQGTLVTVSS
VL: QAVVTQEPSLTVSPGGTVTLTCRSSTGAVTTSNYANWFQQKPGQAPRTLIGGTNKRAPWTPARFSGSLLGDKAALTLSGAQPEDEAEYYCALWYSNLWVFGGGTKLTVLG
For the molecule B9, the Absorbance (450 nm) in experiment [1] was found to be 0.063; in experiment [2], 0.129.

B10: F14 (antibody, human IgG1, lambda, L234A L235A, V domains shown)
VH: EVQLVESGGGLVQPGGSLKLSCAASGFTFNTYAMNWVRQASGKGLEWVARIRSKYNNYATYYADSVKDRFTISRDDSKNTLYLQMNSLKTEDTAVYYCVRHGNFGNSYVSWFAYWGQGTLVTVSS
VL: QAVVTQEPSLTVSPGGTVTLTCRSSTGAVTTSNYANWVQQKPGQAPRGLIYGTNKRAPWTPARFSGSLLGDKAALTLSGAQPEDEAEYYCALWYSNLWVFGGGTKLTVLG
As to B10, the Absorbance (450 nm) turned out to be 0.1 in experiment [1] and 0.114 in experiment [2].

B11: G10 (antibody, human IgG1, lambda, L234A L235A, V domains shown)
VH: EVQLVESGGGLVQPGGSLKLSCAASGFTFNTYAMNWVRQASGKGLEWVARIRSKYNNYATYYADSVKDRFTISRDDSQSTAYLQMNSLKTEDTAVYYCVRHGNFGNSYVSWFAYWGQGTLVTVSS
VL: QAVVTQEPSLTVSPGGTVTLTCRSSTGAVTTSNYANWVQQKPGQAPRTLIYGTNKRAPWTPARFSGSLLGDKAALTLSGAQPEDEAEYYCALWYSNLWVFGGGTKLTVLG
For the molecule B11, the results for the Absorbance (450 nm) in experiment [1] and in experiment [2] were 0.079 and 0.099, respectively.

B12: G07 (antibody, human IgG1, lambda, L234A L235A, V domains shown)
VH: EVQLVESGGGLVQPGGSLKLSCAASGFTFNTYAMNWVRQASGKGLEWVARIRSKYNNYATYYADSVKDRFTISRDDSQSTAYLQMNSLKTEDTAVYYCVRHGNFGNSYVSWFAYWGQGTLVTVSS
VL: QAVVTQEPSLTVSPGGTVTLTCRSSTGAVTTSNYANWFQQKPGQAPRGLIGGTNKRAPWTPARFSGSLLGGKAALTLSGAQPEDEAEYYCALWYSNLWVFGGGTKLTVLG
As to B12, the Absorbance (450 nm) in experiment [1] turned out to be 0.316; in experiment [2], 0.118.

B13: G05 (antibody, human IgG1, lambda, L234A L235A, V domains shown)
VH: EVQLVESGGGLVQPGGSLKLSCAASGFTFNTYAMNWVRQASGKGLEWVARIRSKYNNYATYYADSVKDRFTISRDDSQSTAYLQMNSLKTEDTAVYYCVRHGNFGNSYVSWFAYWGQGTLVTVSS
VL: QAVVTQEPSLTVSPGGTVTLTCRSSTGAVTTSNYANWFQQKPGQAPRGLIYGTNKRAPWTPARFSGSLLGGKAALTLSGAQPEDEAEYYCALWYSNLWVFGGGTKLTVLG
Regarding B13, the Absorbance (450 nm) came to 0.072 in experiment [1] and 0.109 in experiment [2].

B14: G08 (antibody, human IgG1, lambda, L234A L235A, V domains shown)
VH: EVQLVESGGGLVQPGGSLKLSCAASGFTFNTYAMNWVRQASGKGLEWVARIRSKYNNYATYYADSVKDRFTISRDDSQSTAYLQMNSLKTEDTAVYYCVRHGNFGNSYVSWFAYWGQGTLVTVSS
VL: QAVVTQEPSLTVSPGGTVTLTCRSSTGAVTTSNYANWFQQKPGQAPRGLIGGTNKRAPWTPARFSGSLLGDKAALTLSGAQPEDEAEYYCALWYSNLWVFGGGTKLTVLG
Turning to B14, the Absorbance (450 nm) turned out to be 0.119 in experiment [1] and 0.137 in experiment [2].

B15: F13 (antibody, human IgG1, lambda, L234A L235A, V domains shown)
VH: EVQLVESGGGLVQPGGSLKLSCAASGFTFNTYAMNWVRQASGKGLEWVARIRSKYNNYATYYADSVKDRFTISRDDSKNTLYLQMNSLKTEDTAVYYCVRHGNFGNSYVSWFAYWGQGTLVTVSS
VL: QAVVTQEPSLTVSPGGTVTLTCRSSTGAVTTSNYANWVQQKPGQAPRGLIYGTNKRAPWTPARFSGSLLGGKAALTLSGAQPEDEAEYYCALWYSNLWVFGGGTKLTVLG
Take B15: the Absorbance (450 nm) came out at 0.151 in experiment [1] and 0.192 in experiment [2].

B16: G03 (antibody, human IgG1, lambda, L234A L235A, V domains shown)
VH: EVQLVESGGGLVQPGGSLKLSCAASGFTFNTYAMNWVRQASGKGLEWVARIRSKYNNYATYYADSVKDRFTISRDDSQSTAYLQMNSLKTEDTAVYYCVRHGNFGNSYVSWFAYWGQGTLVTVSS
VL: QAVVTQEPSLTVSPGGTVTLTCRSSTGAVTTSNYANWFQQKPGQAPRTLIGGTNKRAPWTPARFSGSLLGGKAALTLSGAQPEDEAEYYCALWYSNLWVFGGGTKLTVLG
With B16, the figures for the Absorbance (450 nm) in experiment [1] and in experiment [2] were 0.088 and 0.098, respectively.

B17: G09 (antibody, human IgG1, lambda, L234A L235A, V domains shown)
VH: EVQLVESGGGLVQPGGSLKLSCAASGFTFNTYAMNWVRQASGKGLEWVARIRSKYNNYATYYADSVKDRFTISRDDSQSTAYLQMNSLKTEDTAVYYCVRHGNFGNSYVSWFAYWGQGTLVTVSS
VL: QAVVTQEPSLTVSPGGTVTLTCRSSTGAVTTSNYANWVQQKPGQAPRTLIYGTNKRAPWTPARFSGSLLGGKAALTLSGAQPEDEAEYYCALWYSNLWVFGGGTKLTVLG
As to B17, the Absorbance (450 nm) in experiment [1] is 0.079; in experiment [2], 0.106.

B18: A10 (antibody, human IgG1, lambda, L234A L235A, V domains shown)
VH: EVQLVESGGGLVQPGGSLKLSCAASGFTFNTYAMNWVRQASGKGLEWVGRIRSKYNNYATYYADSVKDRFTISRDDSKNTAYLQMNSLKTEDTAVYYCVRHGNFGNSYVSWFAYWGQGTLVTVSS
VL: QAVVTQEPSLTVSPGGTVTLTCRSSTGAVTTSNYANWVQQKPGQAPRTLIYGTNKRAPWTPARFSGSLLGDKAALTLSGAQPEDEAEYYCALWYSNLWVFGGGTKLTVLG
Take B18: the results for the Absorbance (450 nm) in experiment [1] and in experiment [2] were 0.066 and 0.097, respectively.

B19: G13 (antibody, human IgG1, lambda, L234A L235A, V domains shown)
VH: EVQLVESGGGLVQPGGSLKLSCAASGFTFNTYAMNWVRQASGKGLEWVARIRSKYNNYATYYADSVKDRFTISRDDSQSTAYLQMNSLKTEDTAVYYCVRHGNFGNSYVSWFAYWGQGTLVTVSS
VL: QAVVTQEPSLTVSPGGTVTLTCRSSTGAVTTSNYANWVQQKPGQAPRGLIYGTNKRAPWTPARFSGSLLGGKAALTLSGAQPEDEAEYYCALWYSNLWVFGGGTKLTVLG
In the case of B19, the Absorbance (450 nm) in experiment [1] stood at 0.242; in experiment [2], 0.265.
